This is an account of results in US20120115202A1.

For the experiment, the target named is PsaJF mutant PSI from Synechocystis sp. PCC 6803 (Synechocystis sp. PCC 6803) (UniProt Q55329). As to the kind of experiment: cell-based or functional assay.

“horse heart cytochrome c (from UniProt P00004 2-105)”: the rate of electron donation (light-induced cytochrome c oxidation, absorbance difference 550-540 nm) (fold faster than to the wild-type PSI) is more than 5.
